Measured values from patent publication US20220177587A1, “METHODS AND USES OF VARIANT CD80 FUSION PROTEINS AND RELATED CONSTRUCTS” (Alpine Immune Sciences, Inc., priority 2018, published 2022).
Changes are numbered by the printed parent chain. Numbers in names are those of the source. Where “and” joins values, the source holds several entries; their conditions need not be identical. Identical values can stand only once.

B1: Y53C, L85R, K89N, A91T, F92P, K93V, R94L, I118V, T120S, I127T, T130A, K169E (protein)
chain: VIHVTKEVKEVATLSCGHNVSVEELAQTRIYWQKEKKMVLTMMSGDMNIWPECKNRTIFDITNNLSIVILALRPSDEGTYECVVRKYENDTPVLEHLAEVTLSVKADFPTPSISDFEVPSSNIRRITCSASGGFPEPHLSWLENGEELNAINTTVSQDPETELYAVSSELDFNMTTNHSFMCLIKYGHLRVNQTFNWNTTKQEHFPDN
B2: L70Q, A91G, I118V, T120S, T130A, K169E (protein)
chain: B1 chain with C53Y, L70Q, R85L, N89K, T91G, P92F, V93K, L94R, T127I
modifications: CD80 v125 ECD
B3: R29D, Y31L, Q33H, K36G, M38I, T41A, M43R, M47T, A91G, I118V, T120S, I127T, T130A, H188D (protein)
chain: VIHVTKEVKEVATLSCGHNVSVEELAQTDILWHKEGKIVLAMRSGDTNIWPEYKNRTIFDITNNLSIVILALRPSDEGTYECVVLKYEKDGFKREHLAEVTLSVKADFPTPSISDFEVPSSNIRRITCSASGGFPEPHLSWLENGEELNAINTTVSQDPETELYAVSSKLDFNMTTNHSFMCLIKYGDLRVNQTFNWNTTKQEHFPDN
B4: R29D, Y31L, Q33H, K36G, M38I, T41A, M43R, M47T, L70Q, D76G, A91G, S103L, I118V, T120S, I127T, T130A (protein)
chain: B3 chain with L70Q, D76G, S103L, D188H
B5: Y53C/L70Q/D90G/T130A/N149D/N152T/H188D (protein)
chain: VIHVTKEVKEVATLSCGHNVSVEELAQTRIYWQKEKKMVLTMMSGDMNIWPECKNRTIFDITNNLSIVIQALRPSDEGTYECVVLKYEKGAFKREHLAEVTLSVKADFPTPSISDFEIPTSNIRRIICSASGGFPEPHLSWLENGEELDAITTTVSQDPETELYAVSSKLDFNMTTNHSFMCLIKYGDLRVNQTFNWNTTKQEHFPDN
B6: K89E, K93E, T130A (protein)
chain: B5 chain with C53Y, Q70L, K89E, G90D, K93E, D149N, T152N, D188H
modifications: CD80 v91 ECD
B7: A91G, S129P (protein)
chain: B5 chain with C53Y, Q70L, G90D, A91G, S129P, A130T, D149N, T152N, D188H
B8: R29D, Y31L, Q33H, K36G, M38I, T41A, M43R, M47T, T62S, E81V, L85R, K89N, A91T, F92P, K93V, R94L, I118V, T120S, T130A, K169E, T175A (protein)
chain: VIHVTKEVKEVATLSCGHNVSVEELAQTDILWHKEGKIVLAMRSGDTNIWPEYKNRTIFDISNNLSIVILALRPSDEGTYVCVVRKYENDTPVLEHLAEVTLSVKADFPTPSISDFEVPSSNIRRIICSASGGFPEPHLSWLENGEELNAINTTVSQDPETELYAVSSELDFNMATNHSFMCLIKYGHLRVNQTFNWNTTKQEHFPDN
B9: R29D, Y31L, Q33H, K36G, M38I, T41A, M43R, M47T, E81V, L85R, K89N, A91T, F92P, K93V, R94L, S129L, H188D (protein)
chain: B8 chain with S62T, V118I, S120T, S129L, A130T, E169K, A175T, H188D
B10: R29D, Y31L, Q33H, K36G, M38I, T41A, M43R, M47T, L70Q, E81V, L85R, K89N, A91T, F92P, K93V, R94L, I118V, T120S, I127T, T130A (protein)
chain: B8 chain with S62T, L70Q, I127T, E169K, A175T
B11: R29D, Y31L, Q33H, K36G, M38I, T41A, M43R, M47T, E81V, L85R, K89N, A91T, F92P, K93V, R94F, N64S, I118T, T130A, N149S, K169I (protein)
chain: B8 chain with S62T, N64S, L94F, V118T, S120T, N149S, E169I, A175T
B12: H18L, R29D, Y31L, Q33H, K36G, M38I, T41A, M43R, M47T, E81V, L85R, K89N, A91T, F92P, K93V, R94L, I118V, T120S, I127T, T130A, L142S, H188D (protein)
chain: B8 chain with H18L, S62T, I127T, L142S, E169K, A175T, H188D
B13: H18L, R29D, Y31L, Q33H, K36G, M38I, T41A, M43R, M47T, E81V, L85R, K89N, A91T, F92P, K93V, R94L, I118V, T120S, I127T, T130A, H188D (protein)
chain: B8 chain with H18L, S62T, I127T, E169K, A175T, H188D
B14: H18L, R29D, Y31L, Q33H, K36G, M38I, T41A, M43R, M47T, P74L, Y80N, E81V, L85R, K89N, A91T, F92P, K93V, R94L, L97R (protein)
chain: B8 chain with H18L, S62T, P74L, Y80N, L97R, V118I, S120T, A130T, E169K, A175T
B15: H18L, R29D, Y31L, Q33H, K36G, M38I, T41A, M43R, M47T, E81V, L85R, K89N, A91T, F92P, K93V, R94L, F116S, T130A, H188D (protein)
chain: B8 chain with H18L, S62T, F116S, V118I, S120T, E169K, A175T, H188D
B16: C16S, H18L, R29D, Y31L, Q33H, K36G, M38I, T41A, M43R, M47T, E81V, L85R, K89N, A91T, F92P, K93V, R94L, T110A, I118V, H188D (protein)
chain: B8 chain with C16S, H18L, S62T, T110A, S120T, A130T, E169K, A175T, H188D
B17: T62S, E81V, L85R, K89N, A91T, F92P, K93V, R94L, I118V, T120S, T130A, K169E (protein)
chain: B1 chain with C53Y, T62S, E81V, T127I
B18: V22A, R29D, Y31L, Q33H, K36G, M38I, T41A, M43R, M47T, E81V, L85R, K89N, A91T, F92P, K93V, R94L, V68M, T130A (protein)
chain: B8 chain with V22A, S62T, V68M, V118I, S120T, E169K, A175T
B19: R29D, Y31L, Q33H, K36G, M38I, T41A, M43R, M47T, E81V, L85R, K89N, A91T, F92P, K93V, R94L, H18L, P74L, Y80N, T130A, R190S (protein)
chain: B8 chain with H18L, S62T, P74L, Y80N, V118I, S120T, E169K, A175T, R190S
B20: R29D, Y31L, Q33H, K36G, M38I, T41A, M43R, M47T, E81V, L85R, K89N, A91T, F92P, K93V, R94L, H18L, V68M, T130A (protein)
chain: B8 chain with H18L, S62T, V68M, V118I, S120T, E169K, A175T
B21: R29D, Y31L, Q33H, K36G, M38I, T41A, M43R, M47T, E81V, L85R, K89N, A91T, F92P, K93V, R94L, S21P, P74L, Y80N, D90N, T130A, N149S, E162G (protein)
chain: VIHVTKEVKEVATLSCGHNVPVEELAQTDILWHKEGKIVLAMRSGDTNIWPEYKNRTIFDITNNLSIVILALRLSDEGTNVCVVRKYENNTPVLEHLAEVTLSVKADFPTPSISDFEIPTSNIRRIICSASGGFPEPHLSWLENGEELSAINTTVSQDPETGLYAVSSKLDFNMTTNHSFMCLIKYGHLRVNQTFNWNTTKQEHFPDN
B22: S21P, R29D, Y31L, Q33H, K36G, M38I, T41A, M43R, M47T, N48I, V68A, E81V, L85R, K89N, A91T, F92P, K93V, R94L,P109H, I126L, K169I (protein)
chain: VIHVTKEVKEVATLSCGHNVPVEELAQTDILWHKEGKIVLAMRSGDTIIWPEYKNRTIFDITNNLSIAILALRPSDEGTYVCVVRKYENDTPVLEHLAEVTLSVKADFHTPSISDFEIPTSNIRRLICSTSGGFPEPHLSWLENGEELNAINTTVSQDPETELYAVSSILDFNMTTNHSFMCLIKYGHLRVNQTFNWNTTKQEHFPDN

system: human pan T cells; assay: Anti-CD3 coimmobilization assay, IFN-gamma; type: cell-based; settings: Table E34; culture supernatant, 3 days
Procedure: Costimulatory bioactivity of CD80 fusion variants was determined in anti-CD3 coimmobilization assays. 1 nM or 4 nM mouse anti-human CD3 (OKT3, Biolegends, USA) was diluted in PBS with 1 nM to 80 nM rCD80.Fc variant proteins. This mixture was added to tissue culture treated flat bottom 96-well plates (Corning, USA) overnight to facilitate adherence of the stimulatory proteins to the wells of the plate. The next day, unbound protein was washed off the plates and 100,000 purified human pan T cells (BenTech Bio, US) or human T cell clone BC3 (Astarte Biologics, USA) were added to each well in a final volume of 200 μl of Ex-Vivo 15 media (Lonza, Switzerland). Cells were cultured 3 days before harvesting culture supernatants and measuring human IFN-gamma levels with Duoset ELISA kit (R&D Systems, USA) as described above.

First: B1
Second: B2
The “Anti-CD3 IFN-gamma Coimmobilization Assay” value of the first is 1.5-fold lower: 75 pg/mL for the first, 115 pg/mL for the second.

Compared with B3, B4 is 1.8-fold higher in “Anti-CD3 IFN-gamma Coimmobilization Assay” value: 125 pg/mL for the first, 224 pg/mL for the second.

Compared with B5, B6 is 4.7-fold higher in “Anti-CD3 IFN-gamma Coimmobilization Assay” value: 122 pg/mL for the first, 571 pg/mL for the second.

First: B7
Second: B8
The “Anti-CD3 IFN-gamma Coimmobilization Assay” value of the first is lower: 0 pg/mL for the first, 114 pg/mL for the second.

First: B9
Second: B11
The “Anti-CD3 IFN-gamma Coimmobilization Assay” value of the first is 2.9-fold higher: 87 pg/mL for the first, 30 pg/mL for the second.

B12 and B13 are within 1.5-fold of each other in “Anti-CD3 IFN-gamma Coimmobilization Assay” value: 143 pg/mL for the first, 108 pg/mL for the second.

Compared with B14, B15 is 6.3-fold higher in “Anti-CD3 IFN-gamma Coimmobilization Assay” value: 18 pg/mL for the first, 114 pg/mL for the second.

Going from B16 to B17, the “Anti-CD3 IFN-gamma Coimmobilization Assay” value falls from 247 pg/mL to 107 pg/mL (2.3-fold).

Going from B18 to B19, the “Anti-CD3 IFN-gamma Coimmobilization Assay” value falls from 96 pg/mL to 8 pg/mL (12-fold).

B20 and B21 are within 1.5-fold of each other in “Anti-CD3 IFN-gamma Coimmobilization Assay” value: 51 pg/mL for the first, 54 pg/mL for the second.

B22 was tested, and the “Anti-CD3 IFN-gamma Coimmobilization Assay” value was 137 pg/mL.

With B10 the “Anti-CD3 IFN-gamma Coimmobilization Assay” value was 162 pg/mL and 135 pg/mL.
